Measured values published in US20250375530A1, “ROR1/EGFR BI-SPECIFIC ANTIGEN BINDING MOLECULES” (ALMAC DISCOVERY LIMITED, priority 2022, published 2025).
Positions count from the first letter of the chain named.

B1: P3A1 G1: humanised version of the ROR1 binding VNAR P3A1, SEQ ID NO: 114 (protein)
chain: TRVDQTPSSLSASVGDRVTITCVLTDTSYGLYSTYWYRKNPGSSNKEQISISGRYSESVNKGTKSFTLTISSLQPEDSATYYCRAREARHPWLRQWYDGAGTKVEIKQASGAHHHHHHGAEFEQKLISEEDL
B2: P3A1 G1 AE3: P3A1 G1 loop variant VNAR, SEQ ID NO: 77 (protein)
chain: TRVDQSPSSLSASVGDRVTITCVLTGTRYGLYSTYWYRKNPGSSDEERISISGRYSESVNKGTKSFTLTISSLQPEDSATYYCRAREARHPWLRQWYDGAGTKVEIKQACKAHHHHHHG
B3: P3A1 G1 NAC6: P3A1 G1 loop variant VNAR, SEQ ID NO: 79 (protein)
chain: B2 chain with G26D, G30A, S44T, S52G, T63S
B4: P3A1 G1 NAG8: P3A1 G1 loop variant VNAR, SEQ ID NO: 81 (protein)
chain: TRVDQSPSSLSASVGDRVTITCVLTGTKYGLYATYWYRKNPGSPNKDRMIIGGRYSESVNNGTKSFTLTISSLQPEDSATYYCRAREARHPWLRQWYDGAGTKVEIKQACKAHHHHHHGAEFEQKLISEEDLG

Assay: Analytical SEC of P3A1 loop variants (Superdex 75 increase 10/300 GL, PBS pH 7.4)
Type: physicochemical
Method: Chromatography was carried out in PBS pH 7.4.

Row | Molecule | % monomer by SEC | SEC elution volume
1 | B1 | 100% | 15.47 mL
2 | B2 | 100% | 17.3 mL
3 | B3 | 100% | 17.3 mL
4 | B4 | 100% | 14.8 mL
